# Measured values from US20250270301A1 (GEN2 NEUROSCIENCE, published 2025).
# Changes are numbered by the printed parent chain.
# B1: #44 VH3VK3 humanised hIgG1 (antibody, V domains shown)
# VH: QVQLQESGPGLVKPSETLSLTCTVSGIDLSSYAMAWVRQAPGKGLEWIGCIDRRGGTFYASWVKGRFTISKTSTTVDLQMTSLTAEDTATYFCARDSGAFDPWGQGTLVTVSS
# VL: DIQMTQSPSSLSASVGDRVTITCQASQSVYDNYLAWYQQKPGQPPKLLIHAASNLASGVPSRFKGSGSGTEFTLTISSLQPDDFATYYCLGEFSCTTTDCNVFGGGTKVEIK
# notes: also called VH3Vκ3; Clone VH3VK3 (A)
# B2: #44 VH3VK4 humanised hIgG1 (antibody, V domains shown)
# VH: B1 VH
# VL: B1 VL with K64S
# notes: also called VH3Vκ4; Clone VH3VK4 (B)
# B3: #44 VH4VK3 humanised hIgG1 (antibody, V domains shown)
# VH: QVQLQESGPGLVKPSETLSLTCTVSGIDLSSYAMAWVRQAPGKGLEWIGCIDRRGGTFYASWVKGRFTISKDTSKTTVDLQMTSLTAEDTATYFCARDSGAFDPWGQGTLVTVSS
# VL: B1 VL
# notes: also called VH4Vκ3; Clone VH4VK3 (D)
# B4: #44 VH4VK2 humanised hIgG1 (antibody, V domains shown)
# VH: B3 VH
# VL: B1 VL with D1Q, Q3V
# notes: also called VH4Vκ2; Clone VH4VK2 (C)
# B5: #44_VH4VK4_H05/pVL (antibody, V domains shown)
# VH: B3 VH with S99A, A101H, P104Y
# VL: B1 VL with K64S
# notes: also called Clone VH4_H05; #44_VH4_H05
# B6: #44_VH4VK4_H16/pVL (antibody, V domains shown)
# VH: B3 VH with C50A, R54A, G56N
# VL: B1 VL with K64S
# notes: also called Clone VH4_H16; #44_VH4_H16
# B7: #44_VH4VK4_H08/pVL (antibody, V domains shown)
# VH: B3 VH with C50A, R53A, R54A, G56R
# VL: B1 VL with K64S
# notes: also called Clone VH4_H08; #44_VH4_H08
# B8: #44_VH4VK4_H15/pVL (antibody, V domains shown)
# VH: B3 VH with C50A, R53S, R54V, G56N
# VL: B1 VL with K64S
# notes: also called Clone VH4_H15; #44_VH4_H15
# B9: #44_VH4VK4_H03/pVL (antibody, V domains shown)
# VH: B3 VH with S99A, P104V
# VL: B1 VL with K64S
# notes: also called Clone VH4_H03; #44_VH4_H03
# B10: #44_VH4VK4_H07/pVL (antibody, V domains shown)
# VH: B3 VH with C50A, R53A, R54A, G56N
# VL: B1 VL with K64S
# notes: also called Clone VH4_H07; #44_VH4_H07
# B11: #44_VH4VK4_H11/pVL (antibody, V domains shown)
# VH: B3 VH with C50A, R53A, G56A
# VL: B1 VL with K64S
# notes: also called Clone VH4_H11; #44_VH4_H11
# B12: #44_VH4VK4_H12/pVL (antibody, V domains shown)
# VH: B3 VH with C50A, R53A, G56S
# VL: B1 VL with K64S
# notes: also called Clone VH4_H12; #44_VH4_H12
# B13: #44_VH4VK4_H09/pVL (antibody, V domains shown)
# VH: B3 VH with C50A, R53A, G56N
# VL: B1 VL with K64S
# notes: also called Clone VH4_H09; #44_VH4_H09
# B14: #44_VH4VK4_H14/pVL (antibody, V domains shown)
# VH: B3 VH with C50A, R53S, R54A, G56S, F67S
# VL: B1 VL with K64S
# notes: also called Clone VH4_H14; #44_VH4_H14
# B15: #44_VH4VK4_H10/pVL (antibody, V domains shown)
# VH: B3 VH with C50A, R53A, G56R
# VL: B1 VL with K64S
# notes: also called Clone VH4_H10; #44_VH4_H10
# B16: #44_VH4VK4_H13/pVL (antibody, V domains shown)
# VH: B3 VH with C50A, R53S, R54A, G56N
# VL: B1 VL with K64S
# notes: also called Clone VH4_H13; #44_VH4_H13
# Molecular target: monomeric P301S 2N4R tau, pHrodo-labelled (human, UniProt P10636 1-758, pHrodo Red maleimide label)
# Sequence (P10636 other isoform, or with tags, fused parts or gaps P301S P301S): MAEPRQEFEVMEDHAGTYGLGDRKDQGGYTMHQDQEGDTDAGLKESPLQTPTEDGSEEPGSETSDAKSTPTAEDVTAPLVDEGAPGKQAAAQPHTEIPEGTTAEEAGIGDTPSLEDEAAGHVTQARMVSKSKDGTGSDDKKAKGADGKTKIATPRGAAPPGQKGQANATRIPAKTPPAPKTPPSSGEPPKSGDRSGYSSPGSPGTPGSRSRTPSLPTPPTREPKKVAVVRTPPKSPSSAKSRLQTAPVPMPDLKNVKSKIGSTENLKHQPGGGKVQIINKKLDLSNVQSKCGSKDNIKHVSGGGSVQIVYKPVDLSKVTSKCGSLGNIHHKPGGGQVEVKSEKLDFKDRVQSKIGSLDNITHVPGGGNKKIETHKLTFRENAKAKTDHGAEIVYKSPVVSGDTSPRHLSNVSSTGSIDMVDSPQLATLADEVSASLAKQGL
# Experiment: cell-based or functional assay
Binder,increase of monomeric tau uptake into human iPSC-derived microglia [%],inhibition of monomeric tau uptake into human iPSC-derived astrocytes [%],inhibition of monomeric tau uptake into human iPSC-derived neurons [%]
B1,16.1,85.2,48.4
B2,80.3,87.6,43.1
B3,60.2,87.5,41.8
B4,71.4,84.6,50

# Molecular target: aggregated (oligomeric) P301S 2N4R tau, pHrodo-labelled (human, UniProt P10636 1-758, pHrodo Red maleimide label)
# Sequence (P10636 other isoform, or with tags, fused parts or gaps P301S P301S): as above
# Experiment: cell-based or functional assay
Binder,increase of aggregated tau uptake into human iPSC-derived microglia [%],inhibition of aggregated tau uptake into human iPSC-derived astrocytes [%],inhibition of aggregated tau uptake into human iPSC-derived neurons [%]
B1,77.7,46.4,30.6
B2,83.9,45,33.3
B3,90.5,49.9,36.3
B4,97.6,48,41.9

# Molecular target: T1, full length recombinant human 2N4R tau (human, UniProt P10636 1-758)
# T1 construct: bought from rPeptide; pHrodo Red maleimide-labelled where it stands in uptake assays; also called tau1-441; full length tau
# T1 sequence (P10636 other isoform, or with tags, fused parts or gaps limits assumed): as the sequence (P10636 other isoform, or with tags, fused parts or gaps P301S P301S) above, with S301P counted along it
# Experiment: SPR SCK, IgG on Protein A, tau in flow
# Experimental: 21.5 Assessment of antibody binding to tau (Biacore SCK analysis): Binding of anti-tau hIgG1 to full length recombinant 2N4R tau (Rpeptide; SEQ ID NO: 2) was assessed using the Biacore T200 (GE Healthcare, Chicago, IL, USA) running Biacore T200 Evaluation Software V2.0.1. hIgG1 were immobilised on a Protein A capture sensor chip in running buffer (HBS-EP+ buffer containing 1 mg/mL BSA) at 25° C., captured to ˜50 RU at 10 μL/min. For single-cycle kinetics experiments, recombinant 2N4R tau was flowed at concentrations ranging from 1.25 nM to 10 nM (2-fold dilutions) with an association time of 60 s and a dissociation time of 200 s. Curves were compared to a reference cell that was mock immobilized (no antibody present).
Binder,Kd [nM],Relative KD (to VH0VK0),koff [s⁻¹],kon [M⁻¹ s⁻¹]
B1,7.71,2.01,0.0341,4.43e+06
B2,7.02,1.83,0.043,6.12e+06
B3,6.68,1.74,0.034,5.09e+06
B4,6.86,1.79,0.0247,3.6e+06

# Molecular target: T1, full length recombinant human 2N4R tau
# Experiment: SPR MCK, IgG on Protein A, tau in flow
# Experimental: Slight variations in RMAX are considered likely to be due to differences in ligand capture and not reflective of significant variation in antibody binding characteristics.
# 22.2 Assessment of antibody binding to tau (Biacore MCK analysis): Binding of anti-tau hIgG1 to full length recombinant 2N4R tau (Rpeptide; SEQ ID NO: 2) was assessed using the Biacore T200 (GE Healthcare, Chicago, IL, USA) running Biacore T200 Evaluation Software V2.0.1. hIgG1 were immobilised on a Protein A capture sensor chip in running buffer (HBS-EP+ buffer containing 1 mg/mL BSA) at 25° C., captured to ˜50 RU at […]. For multi-cycle kinetics experiments, recombinant 2N4R tau was flowed at concentrations ranging from 0.39 nM to 12.5 nM in running buffer at 40 μL/min, with an association time of 60 s and a dissociation time of 200 s. Curves were compared to a reference cell that was mock immobilized (no antibody present).
Binder,Kd [nM],Relative KD (to VH0VK0),koff [s⁻¹],kon [M⁻¹ s⁻¹]
B1,5.7,1.75,0.0927,1.63e+07
B2,6.57,2.02,0.0618,9.4e+06
B3,5.14,1.58,0.0403,7.83e+06
B4,4.39,1.35,0.0401,9.14e+06

# Molecular target: T1, full length recombinant human 2N4R tau
# Experiment: SPR SCK, IgG on Protein A, tau in flow
# Remark: another data set of the same source
Binder,"Fold change (KD, to pVH/pVL)",Kd [nM],koff [s⁻¹],kon [M⁻¹ s⁻¹]
B5,1.36,4.84,0.0203,4.18e+06
B6,0.69,9.51,–,–
B7,0.26,25.7,0.011,426000
B8,0.75,8.76,0.0361,4.12e+06
B9,1.03,6.4,0.0151,2.36e+06
B10,0.9,7.35,–,–
B11,1.16,5.65,–,–
B12,1.09,6.04,0.251,4.16e+07
B13,0.67,9.85,0.032,3.25e+06
B14,1.03,6.37,–,–
B15,0.66,9.95,–,–
B16,0.38,17.3,0.0148,855000

# Molecular target: T2, Bovine serum albumin (bovine, UniProt P02769 25-607)
# T2 construct: also called BSA
# T2 sequence (P02769 25-607 limits assumed): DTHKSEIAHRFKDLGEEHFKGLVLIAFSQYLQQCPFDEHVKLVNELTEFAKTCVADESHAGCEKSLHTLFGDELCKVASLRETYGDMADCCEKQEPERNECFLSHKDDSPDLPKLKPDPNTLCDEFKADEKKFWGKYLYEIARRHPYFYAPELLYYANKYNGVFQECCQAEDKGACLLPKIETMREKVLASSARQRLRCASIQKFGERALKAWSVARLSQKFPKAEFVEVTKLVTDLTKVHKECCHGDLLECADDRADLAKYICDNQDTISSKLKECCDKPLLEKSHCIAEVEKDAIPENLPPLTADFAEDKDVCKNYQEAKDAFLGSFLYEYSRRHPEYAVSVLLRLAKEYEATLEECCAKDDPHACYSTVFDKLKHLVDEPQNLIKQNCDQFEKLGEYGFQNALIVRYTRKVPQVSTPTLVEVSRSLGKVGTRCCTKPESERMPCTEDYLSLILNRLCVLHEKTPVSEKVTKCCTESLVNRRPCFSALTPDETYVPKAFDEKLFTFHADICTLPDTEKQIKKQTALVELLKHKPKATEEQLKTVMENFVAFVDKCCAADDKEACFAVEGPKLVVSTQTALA
# Experiment: ELISA on 1% BSA, HEK supernatant, anti-human IgG-HRP, n=1
# Experimental: FIG. 7. A panel of humanised anti-tau IgG bind to full length recombinant 2N4R tau in an ELISA format. Supernatants from HEK cells transiently transfected with each IgG clone were tested at 1:100 for binding to full length recombinant 2N4R tau (solid bars). […] Binding of anti-tau hIgG1 was detected using an HRP-conjugated anti-human secondary antibody and data are shown from a representative experiment (n=1 replicate).
# Antigen was removed from wells and the plates were then blocked for 1 hour at RT with 5% dried milk in 1×TBS. Blocking solution was removed, HEK293 cell supernatant (1:100 in 1% BSA/1×TBS) was added to relevant wells, and plates were incubated for 1 hour at RT with gentle shaking. Plates were then washed four times with TBS/0.1% Tween (TBST). Goat anti-human IgG-HRP antibody (Thermo Fisher Scientific, Waltham, MA, USA), diluted 1:2000 in 5% milk/TBS, was added to each well and plates were incubated for 1 hour at RT with gentle shaking before being washed four times with TBST. 3,3′,5,5′-tetramethylbenzidine (TMB) ELISA solution was added to each well and plates were incubated for 15 mins at RT. An equal volume of 1 M sulfuric acid was added to each well and OD was measured at 450 nm.
row,Binder,binding result
1,B1,no binding (tested: supernatant 1:100)
2,B2,no binding (tested: supernatant 1:100)
3,B3,no binding (tested: supernatant 1:100)
4,B4,no binding (tested: supernatant 1:100)

# Molecular target: T2, Bovine serum albumin
# Experiment: as above
# Remark: another data set of the same source
row,Binder,binding result
1,B5,no binding (tested: 30 ng/ml (legend 1:100))
2,B6,no binding (tested: 30 ng/ml (legend 1:100))
3,B7,no binding (tested: 30 ng/ml (legend 1:100))
4,B8,no binding (tested: 30 ng/ml (legend 1:100))
5,B9,no binding (tested: 30 ng/ml (legend 1:100))
6,B10,no binding (tested: 30 ng/ml (legend 1:100))
7,B11,no binding (tested: 30 ng/ml (legend 1:100))
8,B12,no binding (tested: 30 ng/ml (legend 1:100))
9,B13,no binding (tested: 30 ng/ml (legend 1:100))
10,B14,no binding (tested: 30 ng/ml (legend 1:100))
11,B15,no binding (tested: 30 ng/ml (legend 1:100))
12,B16,no binding (tested: 30 ng/ml (legend 1:100))
